Measured values published in the domain aggregation screens of Martell et al. (2025).

Assay: soluble fraction after stress (log2 fold change); higher = more stays soluble; pooled small domains, quantitative proteomics
Settings: stress: 50 degC
Outline: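 Each library was heated to 50°C as a stress step. The libraries, made up of small protein domains, were pooled and analysed at high throughput by quantitative proteomics. The reported value is the base-two logarithm of the fold change in each protein's soluble amount after stress, taken as a measure of aggregation propensity. The higher the value, the more protein stays in solution.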

HMNNIINEAQIKQWVEEFYLSVSPRPTRATMIALVHKKIKEETKDGEEGQTVSETLINNFYTALEKEHKRK
soluble fraction (log2): -0.0384

HMKGVSFEEIERAVRTAQNPEADETAQQHAGMVFSRMEGNELFDKLVQSSSTIGKKITGLMDYYL
soluble fraction (log2): -0.0889

HMSVLSVASKNQAINPGQVVALLKDGIKLNDDGRVEILDNNNNIRYNEKGNLLSIEERVKEFLDANPHFRQ
soluble fraction (log2): -0.368

HMIHTYVETRKVGNNDGLIRVDNKYYRVPQHLVGMKVQIQIDEATISVLQGGVMVATLDKTADVFNPQA
soluble fraction (log2): -0.782

HMTQFSLTTEEINVLKKSYSEFTDSDKELFNKILEKYNKFKNESSNDIAFEAKILEKLQEIENFYE
soluble fraction (log2): -0.126

HMEAAIRNALSRVENPDETQRARIYRTAHDALIRNLENRGITDPEQVRPQVSRLKDLISVIEREYHG
soluble fraction (log2): -0.0521

HMQLPTPEDLKKRRNELGLTQSDLAKRAGVSQPLIARIESGDVDPRLSTVRKILDAFEEVEKEQQ
soluble fraction (log2): 0.0795

HMVEEVDYGTFMRMIEEKNIGKVEVRAGEIVFTDKDEKQIYKTGAMEDATLTQRLYESGAEFSKDV
soluble fraction (log2): 0.0146

HMYGTQTVNRGAVQPGMLVKHKDSTWTASANARGRLYLHRGVEMTYTRDLLVEVYLNGLGNGL
soluble fraction (log2): 0.102

HMGTPEQSAQFEQVLEELKNVPGPVMKAMQRAQDIYGYLPIEIQSRIGQAFGVSLEEVYGIATFYSQFNL
soluble fraction (log2): -1.68

HMNIQGIFGRNLKQKRLEKGMTQEQLAEKAGVSTDTVKRYESGKYDGIRLDMAWYMANALDTPLQALLPP
soluble fraction (log2): 0.367

HMNEKLRNYIDTLFEHAPTTVRAVELKEEMFQNLTDKYNDLIAQGKSEEAAFNIAVASIGDVDSLIAGLS
soluble fraction (log2): 0.219

HMTDAELDLLTPREQEVLQLIARGYLYKEIARRLGISVKTVEAHASSVLRKLQLSTRHELSHWAAQRH
soluble fraction (log2): -0.258

HMGIDRPLFTLAQFARQIGEQVKISLSLPQDGRRRLQGKVLSVGESGIVLDVDGREFTVAIGNVDKARL
soluble fraction (log2): -1.24

HMVLRPDDVEDSLWREWVSHRKAKRAAVTEGVLKTFRQEATKASFTLADAMRKSIDRGWTGFEAEWVARET
soluble fraction (log2): -0.074

HMTSSSGTITADWLNVRSGAGTNFSRLGSIAGGTRLTVISVHGEWYKITASFEGEIRTGYVHSQYVQMDGE
soluble fraction (log2): -3.96

HMDFQTDVFISRFAELKKESGETNKDLQDVFELSLSALINYQTGKRIPDIAFLHKLAQHFGVSADYLLGLS
soluble fraction (log2): -0.549

HMAEDDAVQKAVREAVAESADAVADYKAGSERALNFIVGVVMKKTRGKASPGEVHRLVKAEVEK
soluble fraction (log2): 0.4

HMHTGLTNYEYKQIKSSLLKILTQSESMRLGELVDKVDQFESEKVTTVIRFLVGNEELMLFDDTLTLKKQL
soluble fraction (log2): 0.0246

HMATGGKIYIGMNDNGKVVGVSDADKLLEDIPNKVRDVLGIIVDVNLLEENGLKYIEIDVPPYSN
soluble fraction (log2): -0.585

HMYQNRLFYTLKTGETVADLSKSQDINLSTIWSLNKHLYSSESEMMKAAPGQQIILPLKKLP
soluble fraction (log2): -0.105

HMNKEIEDYVATYSSMKAKEAAAIFDTMTSDLDLVAKILEAMSADDRAKILEQMNEENAARLTKMMD
soluble fraction (log2): 0.21

HMLMKKTITHEIELLEFLKQIFPQSSTNKLRKMLSNGRIKINSEIVHKAKYKLQENDTFELLDNPT
soluble fraction (log2): -0.488

HMKKSTLLLFFLKELLEGKKISLKSFALENDINIRTAQRYIEDIEEAFPDNLLKENDFYSFV
soluble fraction (log2): -2.25

HMTMEQAEFLSRQFNLLSQRLNDPSIEWQDIADLRSEYTGEDEHRDTIRKGAKLFYEYLEAGWIKN
soluble fraction (log2): -0.581

HMSNPPLPFLAKTKVSWTGEQDGDLGFLENEVVKVFHVVDELWWQGSLSRNGAEGIFPRDFVEVISAP
soluble fraction (log2): -1.8

HMGRPQISDELRNAIIEVAKDNRDWGYIRIQGQLKYLGYRVSTATIGKVLKKAGLEPQPDRRRK
soluble fraction (log2): -0.264

HMIQSEQIPFSKFLKEVDSGRVVQVEIQGNNINGVLSDGSKFKTYSPNYPELVGKLSDKGVSIVASPV
soluble fraction (log2): 0.106

HMAELVISVKADGTIHYQDRQLTKEALAAVLETRPEALLNLYVDEKAPFEAFVGVVDIARLKRGGHFVIST
soluble fraction (log2): -0.632

HMEGLESVVPDLRGKSLKSAAIAAGLSGFALSPEGSGIVYKQSPAPGGRYLKGTLIAVWLRT
soluble fraction (log2): -0.513

HMDSGVPEWLASALRASPVAWKNFLALPPSHQRRYVGWISSARRDETRNRRIAEAISLLVEHKRLG
soluble fraction (log2): -1

HMASFTDAQALEVKDLYPDWSKIPEGTHLEAGQRVRYNGNLYKVRTGQAHDKQSTWTPTDAASLFEAID
soluble fraction (log2): 0.116

HMDAINITTYKGQITLTGTKTGTLVGIYNTAGMLVKSMMSKGEKLYFDNLPSGVYIIKVGEEEPRKVQVI
soluble fraction (log2): -0.165

HMGAAAQLLHAVVLRVPAEDTMKFVSETPELRRYLGAPLGPTAALVRPGQEQELAAALQAHGILVEFDE
soluble fraction (log2): -0.0602

HMSEEAMVSNFRQQEILELARKDGKVTVDGLAELYDVTVQTIRRDLSDLADSGRLKRVHGGAVVPS
soluble fraction (log2): 0.262

HMGPGFVGGSVLSGGNRGEGDPVANAQVFITDMDDNVVAFTKTDAEGNFDMTNLAYGDYKMYVDILNK
soluble fraction (log2): -0.0166

HMQELKWERNYKLVQDYIKQYGVLPSKNTKYANVSIGRWLTNQHELVKEDNLAPERFEKIKELDT
soluble fraction (log2): -0.233

HMYEGLILINKYDSLVSAKLETNKIKSLGLFFEDMEEKIAVFSGPFKNNDINLKLDFLIRNGYLDAKIY
soluble fraction (log2): -4.51

HMLLTDGLERRIDGDKNLHIRISLPMLVKGQIKLAKSGNNESTVKGIFKIESYPGSHPRDVVTEIIEG
soluble fraction (log2): -0.0938

HMLNPVEKLLLLSQLYIGRLKGSFVVKEKHHKSTILGEVRELSPEEITLKTDEGYRLIRVDDILTIQL
soluble fraction (log2): -2.18

HMKEDFPLLEQLRYTGEGADVTGTAEKMESIQALRSAADSGGFRATLGDIQQIPGGGLRFTLSLRGSR
soluble fraction (log2): 0.0335

HMENPLVEVVVPVLNEERILKANIETLHHFLRTQPGFNFRITIADNGSTDKTQAIANDLTNSHAVIRV
soluble fraction (log2): -0.12

HMNNLGSKIKELRIAENLTQEKLAEELNVSFQSISRWENGISTPDISLIPAIARFFGVSTDYLFGLQD
soluble fraction (log2): -0.384

HMKLTEGETIFLNESDTADWKKIPGIGSVYASRIVKYRNLLGGFVSVNQLREVYGIDDELFAKIYPYI
soluble fraction (log2): -0.0044

HMDNMFVEERQALIYEELQSNGRVRVKDLSKKFNVSEDLIRKDLNVLEKEGKLRKIYGGAVLAK
soluble fraction (log2): 0.568

HMSSEPYISLPRGAAHDAYPLSTKAVAAQLGMSEVWLANLRSKGKGPRYVRVGTRVFYSPEDVAQWRRAT
soluble fraction (log2): -0.889

HMIQADFIPQVEQRLADRGLSMSGDVMAAFLDRAGYGLRHVSNEIEKLSLYLGDRKKVTVEDVVQMVAPVR
soluble fraction (log2): -0.283

HMSENDTILAKFASIINNKSLELVIFPDTAYLKGQVSTPEDKARAETVAQSLLGSKPLISLIEFE
soluble fraction (log2): -0.0145

HMENRLREVRDEIATRHGILPTVFINDRVLMNIHSKKPKDVSQLWQVDGISDEFIMKYGPEFIAEYKKKAK
soluble fraction (log2): 0.0216

HMRFNIGNVIEHYKLNTEDLAKVLFPTVKYPKQAFDRVLKGEANLDVIQLERLANHIGVLVTDLF
soluble fraction (log2): -0.196

HMNSEPKTKLQEIAQERGLAAPVYETTHTGPDHDRIFSASVTVGDVVAAGEARSRKGAESEAAIAAIKALG
soluble fraction (log2): 0.212

HMRGQGRILAMLKIQPEIATKDLAYLLGIRQQSLNELLKKLEKNSYVERRPSEKDRRVMVVHLTEKGKE
soluble fraction (log2): -0.715

HMTLSDDEFEIIKSLIIDTLKEEALTINALTKKINHKEAKTIQVIRFLLDNGLVAENNLMKLFVI
soluble fraction (log2): -0.821

HMSQTPDLQQERANLGDNADARIEAVDLWANKFFPEEHADAILQIGQTAKGIEALEFIMSKV
soluble fraction (log2): 0.0193

HMEHNDPEVERTMFQGLEALKLQLFEKAFGHFSLLIKLAPDYAEAWNKRATVLYLMGRFKESESDVMRTLE
soluble fraction (log2): 0.0585
